Laboratory results: publication PMC3195444 (Biochemical Journal, 2011)
Several values for one entry are separate records, joined by “and”; a condition that tells them apart may be missing. Equal entries are not always repeated.

Assays:
[1] = biological target: T1, MBP–GID1A (GIBBERELLIC ACID-… DWARF-1A, MBP fusion) (Arabidopsis thaliana, UniProt Q9MAA7 1-345); assay: SPR
T1 sequence: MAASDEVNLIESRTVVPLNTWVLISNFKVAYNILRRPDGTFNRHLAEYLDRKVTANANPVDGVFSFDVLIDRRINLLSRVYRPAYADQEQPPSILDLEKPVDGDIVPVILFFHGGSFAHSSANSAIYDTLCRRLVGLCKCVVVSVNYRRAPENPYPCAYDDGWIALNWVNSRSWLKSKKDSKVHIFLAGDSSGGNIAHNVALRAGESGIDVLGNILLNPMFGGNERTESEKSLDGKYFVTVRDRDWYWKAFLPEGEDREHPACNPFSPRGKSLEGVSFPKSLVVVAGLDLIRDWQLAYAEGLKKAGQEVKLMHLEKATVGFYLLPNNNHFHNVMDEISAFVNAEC

[2] = biological target: T2, sly1^E138K, Gal4 DNA-binding domain fusion (Arabidopsis thaliana, UniProt Q9STX3 1-151, E138K); assay: yeast three-hybrid
T2 sequence: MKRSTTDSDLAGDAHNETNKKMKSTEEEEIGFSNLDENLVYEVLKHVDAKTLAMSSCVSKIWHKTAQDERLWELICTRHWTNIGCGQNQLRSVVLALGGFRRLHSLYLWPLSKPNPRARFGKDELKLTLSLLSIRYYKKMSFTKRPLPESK

B1: MBP–RGL1^N (RGL1^1–137, N-terminal or DELLA domain of RGL1, MBP fusion) (domain or fragment)
chain: MKREHNHRESSAGEGGSSSMTTVIKEEAAGVDELLVVLGYKVRSSDMADVAHKLEQLEMVLGDGISNLSDETVHYNPSDLSGWVESMLSDLDPTRIQEKPDSEYDLRAIPGSAVYPRDEHVTRRSKRTRIESELSST
Ka [1]: 5.73e+08 M⁻¹ and 3.58e+08 M⁻¹ and 6.49e+08 M⁻¹

B2: RGL1 (REPRESSOR OF GA1-3-LIKE 1), Gal4 activation domain fusion (natural protein)
chain: MKREHNHRESSAGEGGSSSMTTVIKEEAAGVDELLVVLGYKVRSSDMADVAHKLEQLEMVLGDGISNLSDETVHYNPSDLSGWVESMLSDLDPTRIQEKPDSEYDLRAIPGSAVYPRDEHVTRRSKRTRIESELSSTRSVVVLDSQETGVRLVHALLACAEAVQQNNLKLADALVKHVGLLASSQAGAMRKVATYFAEGLARRIYRIYPRDDVALSSFSDTLQIHFYESCPYLKFAHFTANQAILEVFATAEKVHVIDLGLNHGLQWPALIQALALRPNGPPDFRLTGIGYSLTDIQEVGWKLGQLASTIGVNFEFKSIALNNLSDLKPEMLDIRPGLESVAVNSVFELHRLLAHPGSIDKFLSTIKSIRPDIMTVVEQEANHNGTVFLDRFTESLHYYSSLFDSLEGPPSQDRVMSELFLGRQILNLVACEGEDRVERHETLNQWRNRFGLGGFKPVSIGSNAYKQASMLLALYAGADGYNVEENEGCLLLGWQTRPLIATSAWRINRVE
fold recruitment against the ΔDELLA mutant in the presence of GID1A/GA3 [2]: 4 fold
